Positions count from the first letter of the chain named. In names and notes the source's numbering stands.
B1: GLS3000 F55Q one-arm antibody (antibody, human IgG1, kappa, L234A L235A, N297A, name in Kabat numbering)
heavy: QVQLVESGGGVVQPGRSLRLSCAASGFTFSNAWMHWVRQAPGKGLEWVAQIKAKSNNYATYYAESVKGRFTISRDDSKNSLYLQMNSLKTEDTAVYYCRYVHYGAYYGVDAWGQGTTVTVSSASTKGPSVFPLAPSSKSTSGGTAALGCLVKDYFPEPVTVSWNSGALTSGVHTFPAVLQSSGLYSLSSVVTVPSSSLGTQTYICNVNHKPSNTKVDKKVEPKSCDKTHTCPPCPAPEAAGGPSVFLFPPKPKDTLMISRTPEVTCVVVDVSHEDPEVKFNWYVDGVEVHNAKTKPREEQYASTYRVVSVLTVLHQDWLNGKEYKCKVSNKALPAPIEKTISKAKGQPREPQVYTLPPSRCELTKNQVSLSCAVKGFYPSDIAVEWESNGQPENNYKTTPPVLDSDGSFFLVSKLTVDKSRWQQGNVFSCSVMHEALHNHYTQKSLSLSPDYKDDDDK
chain: EPKSSDKTHTCPPCPAPELLGGPSVFLFPPKPKDTLMISRTPEVTCVVVDVSHEDPEVKFNWYVDGVEVHNAKTKPREEQYNSTYRVVSVLTVLHQDWLNGKEYKCKVSNKALPAPIEKTISKAKGQPREPQVCTLPPSRDELTKNQVSLWCLVKGFYPSDIAVEWESNGQPENNYKTTPPVLDSDGSFFLYSKLTVDKSRWQQGNVFSCSVMHEALHNRYTQKSLSLSP
light: DIVMTQSPLSLPVTPGEPASISCRSSQSLVHSNRNTYLHWYQQKPGQAPRLLIYKVSNRQSGVPDRFSGSGSGTDFTLKISRVEAEDVGVYYCGQGTQVPYTFGQGTKLEIKRTVAAPSVFIFPPSDEQLKSGTASVVCLLNNFYPREAKVQWKVDNALQSGNSQESVTEQDSKDSTYSLSSTLTLSKADYEKHKVYACEVTHQGLSSPVTKSFNRGEC
B2: GLS3000 G89Q one-arm antibody (antibody, human IgG1, kappa, L234A L235A, N297A, name in Kabat numbering)
heavy: B1 heavy
chain: B1 chain
light: B1 light with Q60F, G94Q
B3: GLS3000 F55T one-arm antibody (antibody, human IgG1, kappa, L234A L235A, N297A, name in Kabat numbering)
heavy: B1 heavy
chain: B1 chain
light: B1 light with Q60T
B4: GLS3000 F55V one-arm antibody (antibody, human IgG1, kappa, L234A L235A, N297A, name in Kabat numbering)
heavy: B1 heavy
chain: B1 chain
light: B1 light with Q60V
B5: GLS3000 G89A one-arm antibody (antibody, human IgG1, kappa, L234A L235A, N297A, name in Kabat numbering)
heavy: B1 heavy
chain: B1 chain
light: B1 light with Q60F, G94A
B6: GLS3000 F55R one-arm antibody (antibody, human IgG1, kappa, L234A L235A, N297A, name in Kabat numbering)
heavy: B1 heavy
chain: B1 chain
light: B1 light with Q60R
B7: GLS3000 H27dD one-arm antibody (antibody, human IgG1, kappa, L234A L235A, N297A, name in Kabat numbering)
heavy: B1 heavy
chain: B1 chain
light: B1 light with H31D, Q60F
B8: GLS3000 G89E one-arm antibody (antibody, human IgG1, kappa, L234A L235A, N297A, name in Kabat numbering)
heavy: B1 heavy
chain: B1 chain
light: B1 light with Q60F, G94E
B9: GLS3000 F55W one-arm antibody (antibody, human IgG1, kappa, L234A L235A, N297A, name in Kabat numbering)
heavy: B1 heavy
chain: B1 chain
light: B1 light with Q60W
B10: GLS3000 G89F one-arm antibody (antibody, human IgG1, kappa, L234A L235A, N297A, name in Kabat numbering)
heavy: B1 heavy
chain: B1 chain
light: B1 light with Q60F, G94F
B11: GLS3000 G89Y one-arm antibody (antibody, human IgG1, kappa, L234A L235A, N297A, name in Kabat numbering)
heavy: B1 heavy
chain: B1 chain
light: B1 light with Q60F, G94Y
B12: GLS3000 G91Y one-arm antibody (antibody, human IgG1, kappa, L234A L235A, N297A, name in Kabat numbering)
heavy: B1 heavy
chain: B1 chain
light: B1 light with Q60F, G96Y
B13: GLS3000 G89R one-arm antibody (antibody, human IgG1, kappa, L234A L235A, N297A, name in Kabat numbering)
heavy: B1 heavy
chain: B1 chain
light: B1 light with Q60F, G94R
B14: GLS3000 G91A one-arm antibody (antibody, human IgG1, kappa, L234A L235A, N297A, name in Kabat numbering)
heavy: B1 heavy
chain: B1 chain
light: B1 light with Q60F, G96A
B15: GLS3000 F55S one-arm antibody (antibody, human IgG1, kappa, L234A L235A, N297A, name in Kabat numbering)
heavy: B1 heavy
chain: B1 chain
light: B1 light with Q60S
B16: GLS3000 G91E one-arm antibody (antibody, human IgG1, kappa, L234A L235A, N297A, name in Kabat numbering)
heavy: B1 heavy
chain: B1 chain
light: B1 light with Q60F, G96E
B17: GLS3000 G89K one-arm antibody (antibody, human IgG1, kappa, L234A L235A, N297A, name in Kabat numbering)
heavy: B1 heavy
chain: B1 chain
light: B1 light with Q60F, G94K
B18: GLS3000 G91D one-arm antibody (antibody, human IgG1, kappa, L234A L235A, N297A, name in Kabat numbering)
heavy: B1 heavy
chain: B1 chain
light: B1 light with Q60F, G96D
B19: GLS3000 G91T one-arm antibody (antibody, human IgG1, kappa, L234A L235A, N297A, name in Kabat numbering)
heavy: B1 heavy
chain: B1 chain
light: B1 light with Q60F, G96T
B20: GLS3000 G89N one-arm antibody (antibody, human IgG1, kappa, L234A L235A, N297A, name in Kabat numbering)
heavy: B1 heavy
chain: B1 chain
light: B1 light with Q60F, G94N
B21: GLS3000 G89L one-arm antibody (antibody, human IgG1, kappa, L234A L235A, N297A, name in Kabat numbering)
heavy: B1 heavy
chain: B1 chain
light: B1 light with Q60F, G94L
B22: GLS3000 G89T one-arm antibody (antibody, human IgG1, kappa, L234A L235A, N297A, name in Kabat numbering)
heavy: B1 heavy
chain: B1 chain
light: B1 light with Q60F, G94T
B23: GLS3000 G89P one-arm antibody (antibody, human IgG1, kappa, L234A L235A, N297A, name in Kabat numbering)
heavy: B1 heavy
chain: B1 chain
light: B1 light with Q60F, G94P
B24: GLS3000 G89H one-arm antibody (antibody, human IgG1, kappa, L234A L235A, N297A, name in Kabat numbering)
heavy: B1 heavy
chain: B1 chain
light: B1 light with Q60F, G94H
B25: GLS3000 G89I one-arm antibody (antibody, human IgG1, kappa, L234A L235A, N297A, name in Kabat numbering)
heavy: B1 heavy
chain: B1 chain
light: B1 light with Q60F, G94I
B26: GLS3000 G89W one-arm antibody (antibody, human IgG1, kappa, L234A L235A, N297A, name in Kabat numbering)
heavy: B1 heavy
chain: B1 chain
light: B1 light with Q60F, G94W
B27: GLS3000 G89V one-arm antibody (antibody, human IgG1, kappa, L234A L235A, N297A, name in Kabat numbering)
heavy: B1 heavy
chain: B1 chain
light: B1 light with Q60F, G94V
B28: GLS3000 G89D one-arm antibody (antibody, human IgG1, kappa, L234A L235A, N297A, name in Kabat numbering)
heavy: B1 heavy
chain: B1 chain
light: B1 light with Q60F, G94D
B29: GLS3000 G89M one-arm antibody (antibody, human IgG1, kappa, L234A L235A, N297A, name in Kabat numbering)
heavy: B1 heavy
chain: B1 chain
light: B1 light with Q60F, G94M
B30: GLS3000 G91P one-arm antibody (antibody, human IgG1, kappa, L234A L235A, N297A, name in Kabat numbering)
heavy: B1 heavy
chain: B1 chain
light: B1 light with Q60F, G96P
B31: GLS3000 G91S one-arm antibody (antibody, human IgG1, kappa, L234A L235A, N297A, name in Kabat numbering)
heavy: B1 heavy
chain: B1 chain
light: B1 light with Q60F, G96S
B32: GLS3000 F55Y one-arm antibody (antibody, human IgG1, kappa, L234A L235A, N297A, name in Kabat numbering)
heavy: B1 heavy
chain: B1 chain
light: B1 light with Q60Y

Each binder was assayed against T1, CD3ε homodimer protein (human, UniProt P07766 23-126, limits assumed) (assay: SPR Biacore T200, CD3ε homodimer on chip;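 further: Light-chain single-residue variant antibodies injected over amine-coupled CD3ε homodimer on a CM4 chip at 25 °C, bound amount divided by that of the GLS3000-containing antibody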).
T1 construct: also called CD3 (CD3ε)
T1 sequence (P07766 23-126 limits assumed): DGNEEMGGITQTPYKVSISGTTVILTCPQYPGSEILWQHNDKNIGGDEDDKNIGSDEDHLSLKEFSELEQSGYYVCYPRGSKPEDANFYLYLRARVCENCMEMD

Row | Binder | ratio of amount bound vs unaltered GLS3000
1 | B1 | 0.91
2 | B2 | 0.38
3 | B3 | 0.41
4 | B4 | 0.71
5 | B5 | 1.13
6 | B6 | 1.31
7 | B7 | 0.22
8 | B8 | 0.26
9 | B9 | 0.69
10 | B10 | 1.09
11 | B11 | 1.19
12 | B12 | 0.17
13 | B13 | 0.19
14 | B14 | 0.27
15 | B15 | 0.69
16 | B16 | 0.16

Row | Binder | ratio of amount bound vs unaltered GLS3000
17 | B17 | 0.4
18 | B18 | 0.16
19 | B19 | 0.26
20 | B20 | 0.8
21 | B21 | 0.94
22 | B22 | 1.03
23 | B23 | 0.35
24 | B24 | 0.7
25 | B25 | 1.07
26 | B26 | 0.5
27 | B27 | 1.63
28 | B28 | 0.33
29 | B29 | 0.52
30 | B30 | 0.27
31 | B31 | 0.26
32 | B32 | 0.92
